In PMC3274534 one finds binding of the virus-hFX complex to heparan sulfate-coated plates (attached particles by real-time PCR), enhancement over virus alone; hFX data, which are given here for one substance.

The experiment concerns the target recombinant human adenovirus type 5 (E1 region replaced by lacZ cDNA), whole virus particles (human adenovirus type 5) (UniProt P04133).

As for “human coagulation factor X (zymogen) (natural protein)”, the binding of the virus-hFX complex to heparan sulfate-coated plates (attached particles by real-time PCR), enhancement over virus alone; hFX at 0.008 and 0.05 mg/ml was determined as 7.5 times.
